For the assay, the target named is full-length KIT(T417I,Δ418-419) (kinase-inactive K623A) (human). The assay can be described thus: cryo-EM structure.

The term stoichiometry N denotes the number of molecules, sites or subunits per partner or assembly. The substance “full-length KIT(T417I,Δ418-419) (kinase-inactive K623A) (receptor)” yielded a stoichiometry N of 2.

The values are drawn from paper doi:10.1101/2022.09.08.506998.
